B1: Pyruvate dehydrogenase E1 component subunit alpha, somatic form, mitochondrial (Homo sapiens), P08559-1 (parent)
chain: MRKMLAAVSRVLSGASQKPASRVLVASRNFANDATFEIKKCDLHRLEEGPPVTTVLTREDGLKYYRMMQTVRRMELKADQLYKQKIIRGFCHLCDGQEACCVGLEAGINPTDHLITAYRAHGFTFTRGLSVREILAELTGRKGGCAKGKGGSMHMYAKNFYGGNGIVGAQVPLGAGIALACKYNGKDEVCLTLYGDGAANQGQIFEAYNMAALWKLPCIFICENNRYGMGTSVERAAASTDYYKRGDFIPGLRVDGMDILCVREATRFAAAYCRSGKGPILMELQTYRYHGHSMSDPGVSYRTREEIQEVRSKSDPIMLLKDRMVNSNLASVEELKEIDVEVRKEIEDAAQFATADPEPPLEELGYHIYSSDPPFEVRGANQWIKFKSVS
partner: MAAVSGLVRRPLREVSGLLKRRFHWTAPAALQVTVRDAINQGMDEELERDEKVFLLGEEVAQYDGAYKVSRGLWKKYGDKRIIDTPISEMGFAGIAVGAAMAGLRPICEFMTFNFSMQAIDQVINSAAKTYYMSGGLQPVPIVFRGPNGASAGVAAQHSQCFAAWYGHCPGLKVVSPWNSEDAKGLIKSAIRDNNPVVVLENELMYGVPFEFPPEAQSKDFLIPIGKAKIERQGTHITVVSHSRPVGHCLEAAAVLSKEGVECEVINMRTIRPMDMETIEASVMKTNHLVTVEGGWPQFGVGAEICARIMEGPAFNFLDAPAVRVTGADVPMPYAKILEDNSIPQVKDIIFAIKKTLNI

Variants of: B1
Conditions: with PDHB

effect of a mutation on the interaction | Variant
with no effect | S232A;S300A
with no effect | Y118F
